The record followed here is patent US20120196307.

Data set [1] concerns the target CRMP-2 C-terminal 53-mer (500-552) synthetic peptide, Q16555.
Data set [2] deals with T1, synaptotagmin-1, intact 65 kDa protein (rat), P21707.
T1 chain: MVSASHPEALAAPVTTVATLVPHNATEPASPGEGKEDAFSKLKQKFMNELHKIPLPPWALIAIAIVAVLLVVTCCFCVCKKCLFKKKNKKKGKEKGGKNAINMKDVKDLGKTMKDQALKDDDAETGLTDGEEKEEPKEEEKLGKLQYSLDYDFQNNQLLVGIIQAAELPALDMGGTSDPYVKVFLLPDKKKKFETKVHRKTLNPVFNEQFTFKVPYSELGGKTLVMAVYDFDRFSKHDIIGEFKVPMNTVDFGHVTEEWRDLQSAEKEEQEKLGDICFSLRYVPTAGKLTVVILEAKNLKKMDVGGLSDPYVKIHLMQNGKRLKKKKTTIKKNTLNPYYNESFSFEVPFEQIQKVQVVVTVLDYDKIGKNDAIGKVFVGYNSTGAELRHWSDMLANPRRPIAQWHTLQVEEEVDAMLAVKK

Data set [3] deals with collapsin response mediator protein-2, intact (rat), P47942.

B1: rat recombinant calpain-2 (Calbiochem) (protein)
chain: MAGIAMKLAKDREAAEGLGSHERAIKYLNQDYETLRNECLEAGALFQDPSFPALPSSLGFKELGPYSSKTRGIEWKRPTEICADPQFIIGGATRTDICQGALGDCWLLAAIASLTLNEEILARVVPLDQSFQENYAGIFHFQFWQYGEWVEVVVDDRLPTKDGELLFVHSAEGSEFWSALLEKAYAKINGCYEALSGGATTEGFEDFTGGIAEWYELRKPPPNLFKIIQKALEKGSLLGCSIDITSAADSEAVTYQKLVKGHAYSVTGAEEVESSGSLQKLIRIRNPWGQVEWTGKWNDNCPSWNTVDPEVRANLTERQEDGEFWMSFSDFLRHYSRLEICNLTPDTLTCDSYKKWKLTKMDGNWRRGSTAGGCRNYPNTFWMNPQYLIKLEEEDEDDEDGERGCTFLVGLIQKHRRRQRKMGEDMHTIGFGIYEVPEELTGQTNIHLSKNFFLTTRARERSDTFINLREVLNRFKLPPGEYVLVPSTFEPHKNGDFCIRVFSEKKADYQTVDDEIEANIEEIEANEEDIGDGFRRLFAQLAGEDAEISAFELQTILRRVLAKREDIKSDGFSIETCKIMVDMLDEDGSGKLGLKEFYILWTKIQKYQKIYREIDVDRSGTMNSYEMRKALEEAGFKLPCQLHQVIVARFADDELIIDFDNFVRCLVRLEILFKIFKQLDPENTGTIQLDLISWLSFSVL
Take B1: in data set [1], the “in vitro digestion of the synthetic peptide, Coomassie gel and N-terminal microsequencing” value is “Purified CRMP-2 C-terminal 53-mer (500-552) peptide was synthesized and digested by rat calpain-2”.

B2: human erythrocyte calpain-1 (protein)
chain: SEEIITPVYCTGVSAQVQKQRARELGLGRHENAIKYLGQDYEQLRVRCLQSGTLFRDEAFPPVPQSLGYKDLGPNSSKTYGIKWKRPTELLSNPQFIVDGATRTDICQGALGDCWLLAAIASLTLNDTLLHRVVPHGQSFQNGYAGIFHFQLWQFGEWVDVVVDDLLPIKDGKLVFVHSAEGNEFWSALLEKAYAKVNGSYEALSGGSTSEGFEDFTGGVTEWYELRKAPSDLYQIILKALERGSLLGCSIDISSVLDMEAITFKKLVKGHAYSVTGAKQVNYRGQVVSLIRMRNPWGEVEWTGAWSDSSSEWNNVDPYERDQLRVKMEDGEFWMSFRDFMREFTRLEICNLTPDALKSRTIRKWNTTLYEGTWRRGSTAGGCRNYPATFWVNPQFKIRLDETDDPDDYGDRESGCSFVLALMQKHRRRERRFGRDMETIGFAVYEVPPELVGQPAVHLKRDFFLANASRARSEQFINLREVSTRFRLPPGEYVVVPSTFEPNKEGDFVLRFFSEKSAGTVELDDQIQANLPDEQVLSEEEIDENFKALFRQLAGEDMEISVKELRTILNRIISKHKDLRTKGFSLESCRSMVNLMDRDGNGKLGLVEFNILWNRIRNYLSIFRKFDLDKSGSMSAYEMRMAIESAGFKLNKKLYELIITRYSEPDLAVDFDNFVCCLVRLETMFRFFKTLDTDLDGVVTFDLFKWLQLTMFA
Regarding B2, the “in vitro protease digestion of lysate, Western blot” value in data set [2] was “Digestion with calpain-1 showed identical results (data not shown)”.

B3: human calpain-2 (Calbiochem, Cat#208715) (protein)
chain: AGIAAKLAKDREAAEGLGSHDRAIKYLNQDYEALRNECLEAGTLFQDPSFPAIPSALGFKELGPYSSKTRGIEWKRPTEICADPQFIIGGATRTDICQGALGDCWLLAAIASLTLNEEILARVVPLNQSFQENYAGIFHFQFWQYGEWVEVVVDDRLPTKDGELLFVHSAEGSEFWSALLEKAYAKINGCYEALSGGATTEGFEDFTGGIAEWYELKKPPPNLFKIIQKALQKGSLLGCSIDITSAADSEAITFQKLVKGHAYSVTGAEEVESNGSLQKLIRIRNPWGEVEWTGRWNDNCPSWNTIDPEERERLTRRHEDGEFWMSFSDFLRHYSRLEICNLTPDTLTSDTYKKWKLTKMDGNWRRGSTAGGCRNYPNTFWMNPQYLIKLEEEDEDEEDGESGCTFLVGLIQKHRRRQRKMGEDMHTIGFGIYEVPEELSGQTNIHLSKNFFLTNRARERSDTFINLREVLNRFKLPPGEYILVPSTFEPNKDGDFCIRVFSEKKADYQAVDDEIEANLEEFDISEDDIDDGFRRLFAQLAGEDAEISAFELQTILRRVLAKRQDIKSDGFSIETCKIMVDMLDSDGSGKLGLKEFYILWTKIQKYQKIYREIDVDRSGTMNSYEMRKALEEAGFKMPCQLHQVIVARFADDQLIIDFDNFVRCLVRLETLFKIFKQLDPENTGTIELDLISWLCFSVL
In the case of B3, the “in vitro protease digestion of lysate, Western blot” value in data set [2] is “Syt1-blot also showed a calpain-concentration-dependent reduction of intact Syt1. Calpain treatment also produced a BDP identical to the 33 Syt1-fragment produced following TBI”.

B4: recombinant human caspase-3 (Chemicon) (protein)
chain: SGISLDNSYKMDYPEMGLCIIINNKNFHKSTGMTSRSGTDVDAANLRETFRNLKYEVRNKNDLTREEIVELMRDVSKEDHSKRSSFVCVLLSHGEEGIIFGTNGPVDLKKITNFFRGDRCRSLTGKPKLFIIQACRGTELDCGIETDSGVDDDMACHKIPVEADFLYAYSTAPGYYSWRNSKDGSWFIQSLCAMLKQYADKLEFMHILTRVNRKVATEFESFSFDATFHAKKQIPCIVSMLTKELYFYH
B4: the “in vitro protease digestion of lysate, Western blot” value in data set [2] is listed as “Syt1 was resistant to caspase-3 in the same samples”. The “in vitro protease digestion of naive brain lysate, Western blot” value in data set [3] is listed as “caspase-3 treatment did not produce the 55 kDa BDP”.
